Key:
ROBO1 [1] = target: ROBO1 (UniProt Q9Y6N7); test: ITC, one-site model (OneSites): ROBO1 injected into B5209B mouse-scFv-mcSA414 (3.7 uM) at 25 C in PBS
ROBO1 [2] = target: ROBO1 (UniProt Q9Y6N7); test: ITC, ROBO1 titrated into B5209B mouse-scFv-mcSA414 (3.7 µM), 25° C., PBS; ITC, 25 C, PBS, ROBO1 titrated into the scFv-mcSA414 tetramer (3.7 uM)
ROBO1 [3] = target: ROBO1 (UniProt Q9Y6N7); test: ITC, ROBO1 titrated into B5209B mouse-scFv-mcSA414 (3.7 µM), 25° C., PBS
ROBO1 [4] = target: ROBO1 (UniProt Q9Y6N7); test: ITC, compared with the scFv alone

B1: B5209B mouse-scFv-mcSA414 (protein)
chain: MAEVQLVESGGGVVQPGGSLKLSCAASGFTFSTYDMSWVRQTPDKRLELVATINSNGGSTYYPDSVKGRFTSSRDNAKNILYLQMSSLKSEDTAMYYCAREALLRPPYYALDYWGQGTSVTVSSAGGGGSGGGGSGGGGSDILDIQMTQSPASLSASVGETVTITCGASENIYGALTWYQRKQGKSPQLLIYGAINLADDKSSRFSGSGSGRQYSLKISSLHPDDVATYYCQNVLSTPFTFGSGTKLEIKAAGSSGSGSAAEAGITGTWSNQLGSTFIVTAGADGALTGTYESAVGNAESRYVLTGRYDSAPATDGSGTALGWTVAWKNNSKNAHSATTWSGQYVGGADAKINTQWLLTSGTTQANAWKSTLVGHDTFTKVKPSAASGARHHHHHH
Work on B1 yielded a N (fitted stoichiometry, ROBO1 per scFv-mcSA414 in the cell) (ROBO1 [1]) of 0.334, a Kd (ROBO1 [2]) of 33 nM and a binding ratio (molecules of ROBO1 per tetramer) (ROBO1 [3]) of 2. For the same binder, the enthalpy change (ΔH) (ROBO1 [3]) was -3.85 kcal/mol, the entropy change (ΔS) (ROBO1 [3]) was -22 J/mol·K and the reduction in affinity compared with scFV (ROBO1 [4]) was 10 fold. It also gave a ΔS value relative to scFV (ratio to scFV) (ROBO1 [4]) of 0.025.

— US20120039879A1
